According to patent publication US20260226173A1, “COMPOSITIONS INCLUDING ANTI-WT-1 ANTIBODIES & ANTIGEN BINDING FRAGMENTS AND USES THEREOF” (Memorial Sloan-Kettering Cancer Center, priority 2023, published 2026):

Columns and labels:
[1] = molecular target: WT1 RMF (…)/HLA-A2 complex on cells (human); experiment: flow cytometry, primary AML cells (FIG. 18 shows sample 92C per paragraph 796) stained with PE-conjugated isotype control mouse IgG at 3 µg/ml; unstained 124
[2] = molecular target: HLA-A2 with endogenous peptides on HLA-A2-positive cells not pulsed with peptide (SKLY-16, normal cells of HLA-A2+ donors) (human); experiment: flow cytometry, whole blood of an HLA-A2 positive healthy donor, neutrophil gate, CD15 against isotype control
[3] = molecular target: HLA-A2 with endogenous peptides on HLA-A2-positive cells not pulsed with peptide (SKLY-16, normal cells of HLA-A2+ donors) (human); experiment: flow cytometry, PBMCs of an HLA-A2 positive healthy donor, CD19 against isotype control
[4] = molecular target: HLA-A2 with endogenous peptides on HLA-A2-positive cells not pulsed with peptide (SKLY-16, normal cells of HLA-A2+ donors) (human); experiment: flow cytometry, PBMCs of an HLA-A2 positive healthy donor, CD33 against isotype control

Row | MFI [1] | % of gated neutrophils CD15+ and isotype+ (upper right quadrant) [2] [%] | % of gated neutrophils CD15- and isotype+ (lower right quadrant) [2] [%] | % of PBMCs CD19+ and isotype+ (upper right quadrant) [3] [%] | % of PBMCs CD19- and isotype+ (lower right quadrant) [3] [%] | % of PBMCs CD33+ and isotype+ (upper right quadrant) [4] [%] | % of PBMCs CD33- and isotype+ (lower right quadrant) [4] [%] | Substance
1 | 372 |  |  |  |  |  |  | Iso. (antibody)
2 |  | 0.04 | 0.02 | 0.91 | 0.05 | 0.03 | 1.07 | Isotype (antibody)
